# T1: human Nectin-4 expressed on cells (human, UniProt Q96NY8 32-510)
# T1 construct: On SUM190, SUM185, MDA-MB-468 cells (endogenous) or transfected cells; 31-residue signal peptide left out; also called huN4; wild-type human Nectin-4
# T1 sequence: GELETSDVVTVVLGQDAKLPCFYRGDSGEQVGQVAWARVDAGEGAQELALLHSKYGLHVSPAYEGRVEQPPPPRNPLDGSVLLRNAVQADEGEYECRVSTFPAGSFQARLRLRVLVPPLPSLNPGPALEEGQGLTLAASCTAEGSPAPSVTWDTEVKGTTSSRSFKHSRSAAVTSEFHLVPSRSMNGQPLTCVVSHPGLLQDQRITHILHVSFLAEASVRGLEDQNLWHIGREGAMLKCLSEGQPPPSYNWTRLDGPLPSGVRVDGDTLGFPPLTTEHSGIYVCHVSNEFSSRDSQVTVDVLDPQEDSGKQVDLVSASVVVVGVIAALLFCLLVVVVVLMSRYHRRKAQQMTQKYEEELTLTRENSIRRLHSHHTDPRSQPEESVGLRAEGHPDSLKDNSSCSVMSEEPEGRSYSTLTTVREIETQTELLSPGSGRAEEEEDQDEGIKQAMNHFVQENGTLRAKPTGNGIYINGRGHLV
# T2: human Nectin-4 (Homo sapiens, UniProt Q96NY8)
# T2 sequence (Q96NY8 32-510): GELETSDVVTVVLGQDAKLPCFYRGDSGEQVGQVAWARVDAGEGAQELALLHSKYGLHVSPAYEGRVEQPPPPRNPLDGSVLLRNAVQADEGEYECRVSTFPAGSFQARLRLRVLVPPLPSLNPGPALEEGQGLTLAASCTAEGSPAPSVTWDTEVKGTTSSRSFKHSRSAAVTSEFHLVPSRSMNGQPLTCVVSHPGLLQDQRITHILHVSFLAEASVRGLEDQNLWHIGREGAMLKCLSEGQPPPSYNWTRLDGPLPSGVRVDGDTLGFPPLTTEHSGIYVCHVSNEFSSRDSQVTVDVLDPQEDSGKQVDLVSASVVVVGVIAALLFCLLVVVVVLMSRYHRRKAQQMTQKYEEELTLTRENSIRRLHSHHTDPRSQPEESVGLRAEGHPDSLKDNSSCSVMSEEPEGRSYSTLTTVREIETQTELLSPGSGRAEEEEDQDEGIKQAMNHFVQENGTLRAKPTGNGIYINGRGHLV
# Experiments:
# [1] = target: T1, human Nectin-4 expressed on cells; assay: flow cytometry on SUM190 cells, MedFI at saturation
# Protocol: The humanized antibodies in Table 3 of Example 3 and in Table 6 of Example 5 were cloned, produced and purified, then tested for binding to Nectin-4 expressing cells by flow cytometry. Binding of humanized variants in human IgG1 format was determined on the SUM190 cell line expressing high levels of Nectin-4.
# [2] = target: T1, human Nectin-4 expressed on cells; assay: cell-based or functional assay
# human Nectin-4 = target: T2, human Nectin-4; assay: Binding to human Nectin-4 by SPR; conditions: second set (Table 7); for ka: SPR association constant; for kd: SPR dissociation constant; for Kd: SPR, human IgG1 isotype antibodies
# Protocol: (§1) The antibodies in Table 3 of Example 3 were cloned as human IgG1 isotype antibodies, produced and purified, then tested for binding to human Nectin-4. Affinity of the 16 humanized variants, as well as their association and dissociation constants were assessed by SPR analysis. Table 4 summarizes all the calculated constants (Affinity constant KD (nM), association constant ka (1/Ms) and dissociation constant kd (1/s)).
# as §1, with “Table 6” for “Table 3”, “Example 5” for “Example 3”, “Table 7” for “Table 4”
# [3] = target: human Nectin-4 (protein used in the SPR affinity measurements) (human) (UniProt Q96NY8); assay: SPR, human IgG1
# [4] = target: T1, human Nectin-4 expressed on cells; assay: cell-based or functional assay; remark: listed apart in the source
Molecule,Max MedFi [1] [MedFI],"internalization efficiency on SUM190, normalized to chimeric parental antibody (Fab-ZAP, CTG), experiment 1 [2]","internalization efficiency on SUM190, normalized to chimeric parental antibody (Fab-ZAP, CTG), experiment 2 [2]",ka (human Nectin-4) [M⁻¹ s⁻¹],kd (human Nectin-4) [s⁻¹],Kd (human Nectin-4) [nM],Kd [3] [nM],koff [3] [s⁻¹],kon [3] [M⁻¹ s⁻¹],"internalization efficiency on MDA-MB-468, normalized to chimeric parental antibody (Fab-ZAP, CTG), first column [4]","internalization efficiency on MDA-MB-468, normalized to chimeric parental antibody (Fab-ZAP, CTG), second column [4]"
"H4L3 (antibody, human IgG1, V domains shown, human IgG1 isotype) VH: QVQLVQSGAEVKKPGASVKVSCKASGYIFTSYWMHWVKQAPGQGLEWMGEIDPSDSYTNYNQKFKGRVTMTLDKSTSTTYMELSSLRSEDTAVYYCARGYGNYGDYWGQGTLVTVSS VL: DVVMTQSALSNPVTPGEPASISCRSSKSLLHSNGITYLYWYLQKPGQSPQLLIYQMSNLASGVPDRFSSSGSGTDFTLKISRVEAEDVGVYYCAQNLELPWTFGGGTKVEIK",24800,81.9 % of chimeric parental,61 % of chimeric parental,250000 ± 30000,0.0052 ± 0.0002,21.6 ± 1.1,21.6,0.0052,250000,43.8 % of chimeric parental,43.8 % of chimeric parental
"H5L1 (antibody, human IgG1, V domains shown, human IgG1 isotype) VH: QVQLVQSGAEVKKPGASVKVSCKASGYIFTSYWMHWVKQRPGQGLEWMGEIDPSDSYTNYNQKFKGRVTMTLDKSTSTTYMELSSLRSEDTAVYYCARGYGNYGDYWGQGTLVTVSS VL: DVVMTQSPLSLPVTPGEPASISCRSSKSLLHSNGITYLYWYLQKPGQSPQLLIYQMSNLASGVPDRFSSSGSGTDFTLKISRVEAEDVGVYYCAQNLELPWTFGGGTKVEIK",18300,71.5 % of chimeric parental,52.4 % of chimeric parental,230000,0.0056,24.5,24.5,0.0056,230000,33.4 % of chimeric parental,33.4 % of chimeric parental
"H7L3 (antibody, human IgG1, V domains shown, human IgG1 isotype) VH: QVQLVQSGAEVKKPGASVKVSCKASGYIFTSYWMHWVKQRPGQGLEWIGEIDPSDSYTNYNQKFKGRVTLTLDKSTSTTYMELSSLRSEDTAVYYCARGYGNYGDYWGQGTLVTVSS VL: DVVMTQSALSNPVTPGEPASISCRSSKSLLHSNGITYLYWYLQKPGQSPQLLIYQMSNLASGVPDRFSSSGSGTDFTLKISRVEAEDVGVYYCAQNLELPWTFGGGTKVEIK",25000,88.5 % of chimeric parental,61.3 % of chimeric parental,110000,0.0055,49,49,0.0055,110000,51.8 % of chimeric parental,51.8 % of chimeric parental
"H6L3 (antibody, human IgG1, V domains shown, human IgG1 isotype) VH: QVQLVQSGAEVKKPGASVKVSCKASGYIFTSYWMHWVKQRPGQGLEWIGEIDPSDSYTNYNQKFKGRVTMTLDKSTSTTYMELSSLRSEDTAVYYCARGYGNYGDYWGQGTLVTVSS VL: DVVMTQSALSNPVTPGEPASISCRSSKSLLHSNGITYLYWYLQKPGQSPQLLIYQMSNLASGVPDRFSSSGSGTDFTLKISRVEAEDVGVYYCAQNLELPWTFGGGTKVEIK",24800,78.7 % of chimeric parental,92.8 % of chimeric parental,130000,0.0051,38.6,38.6,0.0051,130000,66.3 % of chimeric parental,66.3 % of chimeric parental
"H7L1 (antibody, human IgG1, V domains shown, human IgG1 isotype) VH: QVQLVQSGAEVKKPGASVKVSCKASGYIFTSYWMHWVKQRPGQGLEWIGEIDPSDSYTNYNQKFKGRVTLTLDKSTSTTYMELSSLRSEDTAVYYCARGYGNYGDYWGQGTLVTVSS VL: DVVMTQSPLSLPVTPGEPASISCRSSKSLLHSNGITYLYWYLQKPGQSPQLLIYQMSNLASGVPDRFSSSGSGTDFTLKISRVEAEDVGVYYCAQNLELPWTFGGGTKVEIK",17800,129 % of chimeric parental,73.1 % of chimeric parental,200000,0.006,29.7,29.7,0.006,200000,79 % of chimeric parental,79 % of chimeric parental
"H6L1 (antibody, human IgG1, V domains shown, human IgG1 isotype) VH: QVQLVQSGAEVKKPGASVKVSCKASGYIFTSYWMHWVKQRPGQGLEWIGEIDPSDSYTNYNQKFKGRVTMTLDKSTSTTYMELSSLRSEDTAVYYCARGYGNYGDYWGQGTLVTVSS VL: DVVMTQSPLSLPVTPGEPASISCRSSKSLLHSNGITYLYWYLQKPGQSPQLLIYQMSNLASGVPDRFSSSGSGTDFTLKISRVEAEDVGVYYCAQNLELPWTFGGGTKVEIK",18300,71.3 % of chimeric parental,54.5 % of chimeric parental,190000,0.0062,32.1,32.1,0.0062,190000,61.6 % of chimeric parental,61.6 % of chimeric parental
"H5L2 (antibody, human IgG1, V domains shown, human IgG1 isotype) VH: QVQLVQSGAEVKKPGASVKVSCKASGYIFTSYWMHWVKQRPGQGLEWMGEIDPSDSYTNYNQKFKGRVTMTLDKSTSTTYMELSSLRSEDTAVYYCARGYGNYGDYWGQGTLVTVSS VL: DVVMTQSPLSNPVTPGEPASISCRSSKSLLHSNGITYLYWYLQKPGQSPQLLIYQMSNLASGVPDRFSSSGSGTDFTLKISRVEAEDVGVYYCAQNLELPWTFGGGTKVEIK",25300,81.3 % of chimeric parental,86 % of chimeric parental,220000,0.0053,23.8,23.8,0.0053,220000,39.4 % of chimeric parental,39.4 % of chimeric parental
"H7L2 (antibody, human IgG1, V domains shown, human IgG1 isotype) VH: QVQLVQSGAEVKKPGASVKVSCKASGYIFTSYWMHWVKQRPGQGLEWIGEIDPSDSYTNYNQKFKGRVTLTLDKSTSTTYMELSSLRSEDTAVYYCARGYGNYGDYWGQGTLVTVSS VL: DVVMTQSPLSNPVTPGEPASISCRSSKSLLHSNGITYLYWYLQKPGQSPQLLIYQMSNLASGVPDRFSSSGSGTDFTLKISRVEAEDVGVYYCAQNLELPWTFGGGTKVEIK",23400,89.6 % of chimeric parental,74.8 % of chimeric parental,160000,0.0063,39.5,39.5,0.0063,160000,58.7 % of chimeric parental,58.7 % of chimeric parental
"H6L2 (antibody, human IgG1, V domains shown, human IgG1 isotype) VH: QVQLVQSGAEVKKPGASVKVSCKASGYIFTSYWMHWVKQRPGQGLEWIGEIDPSDSYTNYNQKFKGRVTMTLDKSTSTTYMELSSLRSEDTAVYYCARGYGNYGDYWGQGTLVTVSS VL: DVVMTQSPLSNPVTPGEPASISCRSSKSLLHSNGITYLYWYLQKPGQSPQLLIYQMSNLASGVPDRFSSSGSGTDFTLKISRVEAEDVGVYYCAQNLELPWTFGGGTKVEIK",24800,69.7 % of chimeric parental,63.5 % of chimeric parental,140000,0.0058,41.3,41.3,0.0058,140000,58.5 % of chimeric parental,58.5 % of chimeric parental

# Reference: patent US20250297004A1, “NECTIN-4 BINDING AGENTS” (INNATE PHARMA, priority 2022, published 2025)
